Experimental data: FireProtDB (doi:10.1529/biophysj.106.103804)

Details: Bacillus licheniformis, CD, reversible: Yes
[1] = pH 6, Thermal, Sodium phosphate Sodium fluoride 25 mM 100 mM
[2] = pH 6.5, Thermal, Sodium phosphate Sodium fluoride 25 mM 100 mM
[3] = pH 7, 22 °C, Urea, Fluorescence, Thiol reactivity, Sodium phosphate 100 mM, transition: 3
[4] = pH 7, Thermal, Sodium phosphate Sodium fluoride 25 mM 100 mM
[5] = pH 7.5, Thermal, Sodium phosphate Sodium fluoride 25 mM 100 mM
[6] = pH 8, Thermal, Sodium phosphate Sodium fluoride 25 mM 100 mM

For MKLWFSTLKLKKAA [wild type], the “heat capacity change of unfolding” value [1] was 3.9 kcal/mol/K, the “unfolding enthalpy (van 't Hoff)” value [1] was 141 kcal/mol and the unfolding free energy [1] was 7.2 kcal/mol. For the same sequence, the Tm [2] was 67.9 °C, the “unfolding enthalpy (van 't Hoff)” value [2] was 147 kcal/mol and the “denaturant midpoint (higher = more stable)” value [3] was 3 M. For the same sequence, the unfolding free energy [3] was 5.2 kcal/mol, the Tm [4] was 67 °C and the “unfolding enthalpy (van 't Hoff)” value [4] was 140 kcal/mol. For the same sequence, the Tm [5] was 66.5 °C, the “unfolding enthalpy (van 't Hoff)” value [5] was 163 kcal/mol and the Tm [6] was 65.1 °C. The “unfolding enthalpy (van 't Hoff)” value [6] was 133 kcal/mol.
